{
  "source": "paper PMC5161705",
  "key": {"[1]": {"target": "biotin-labeled MBP (E. coli) [MBP: P0AEX9]", "test": "BLI"}, "[2]": {"target": "MBP^V8G/Y283D (E. coli) [MBP: P0AEX9]", "test": "ITC"}},
  "data": [
    {"substance": "Trigger Factor (TF) (from UniProt P0A850 1-432) (natural protein)", "values": [
      {"measurement": "koff", "setting": "[1]", "result": 0.05, "unit": "s⁻¹"}
    ]},
    {"substance": "SecB (from UniProt P0AG86 1-155) (natural protein)", "values": [
      {"measurement": "Kd", "setting": "[2]", "result": 50, "unit": "mM"},
      {"measurement": "koff", "setting": "[1]", "result": 0.01, "unit": "s⁻¹"}
    ]}
  ]
}
